The assay deals with T1, human IL-2Rβ (CD122 protein, Fc Tag) (27-239) (human, UniProt P14784 27-239).
T1 construct: range 27-239; Bought protein; also called hu-IL-2Rβ subunit; IL-2Rβ subunit; not shown: Fc tag of the bought protein
T1 sequence (looked up): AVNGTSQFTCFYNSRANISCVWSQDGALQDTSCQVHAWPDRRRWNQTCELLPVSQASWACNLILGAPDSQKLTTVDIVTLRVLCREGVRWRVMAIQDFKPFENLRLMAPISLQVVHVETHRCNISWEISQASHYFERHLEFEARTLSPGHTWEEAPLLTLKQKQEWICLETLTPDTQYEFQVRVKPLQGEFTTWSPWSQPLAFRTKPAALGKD
As to the kind of experiment: phage ELISA competition. The method in brief:
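In this competitive binding ELISA, test ligands compete with a phage tracer for human IL-2Rβ-Fc, and IC50 is calculated from the absorbance signal over the ligand dilution series. A 50 μL volume of phage tracer was added without washing and left for 45 min at 4° C. TMB was used to detect bound phage for 1 to 15 min at 25° C, after which stop solution was added and absorbance was read at 450 nm.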

Bridge positions count the residues as written; N and C are the ends. Ends that are not written are not given here.

B1: SEQ ID NO 2832 (peptide)
peptide: WYPCWLAQLGELCDQDWDTPS
Consider B1, for which the half-inhibitory concentration (IC50) was under 100 µM.

B2: SEQ ID NO 2840 (peptide)
peptide: LESLDCFFARIGDLCEIWDV
Molecule B2 gave an IC50 of under 100 µM.

B3: SEQ ID NO 2856 (peptide)
peptide: RLLRDCFLAKVGDLCELFVW
B3: the IC50 was under 100 µM.

B4: SEQ ID NO 2841 (peptide)
peptide: WQIFDCYLAQVGELCDLQDT
modifications: disulfide 6-15 (inferred)
Turning to B4, the concentration for half-maximal inhibition (IC50) was under 100 µM.

B5: SEQ ID NO 2858 (peptide)
peptide: ELLVDCFKVKVGELCDLFFG
modifications: disulfide 6-15 (inferred)
Molecule B5 had an IC50 of under 100 µM.

B6: SEQ ID NO 2846 (peptide)
peptide: VTVQDCYFARVGDLCDLFSP
The molecule B6 yielded an IC50 of under 100 µM.

B7: SEQ ID NO 2834 (peptide)
peptide: DGWWPCWIAQVGELCDLEDPV
As to B7, the IC50 is under 100 µM.

B8: SEQ ID NO 2828 (peptide)
peptide: WLPCWIAKIGDLCDLD
As to B8, the IC50 is under 100 µM.

B9: SEQ ID NO 2836 (peptide)
peptide: RWMFDCLFARVGELCDIRPW
modifications: disulfide 6-15 (inferred)
Molecule B9 returned an IC50 of under 100 µM.

B10: SEQ ID NO 2859 (peptide)
peptide: RYVHDCFIAQVGDLCDLFLH
B10 came in with an IC50 of under 100 µM.

B11: SEQ ID NO 2826 (peptide)
peptide: YRWWYPCDIAQVGELCDLDYLL
B11 yielded an IC50 of under 100 µM.

B12: SEQ ID NO 2838 (peptide)
peptide: VVCYACDIAHVGELCDLTCR
As to B12, the IC50 is under 100 µM.

B13: SEQ ID NO 2842 (peptide)
peptide: GRYPDCYIAHVGELCEFYDG
B13 yielded an IC50 of under 100 µM.

B14: SEQ ID NO 2868 (peptide)
peptide: HGILDCYFAKVGELCELFDW
On to B14, for which the IC50 was under 100 µM.

B15: SEQ ID NO 2830 (peptide)
peptide: WEHEFTWYPCWIAQVGELCDMD
In turn, B15 yielded a concentration for half-maximal inhibition (IC50) of under 100 µM.

B16: SEQ ID NO 2853 (peptide)
peptide: SWLSDLQDCYIAQVGDLCQI
In the case of B16, the IC50 was under 100 µM.

B17: SEQ ID NO 2852 (peptide)
peptide: YDCYIAQVGELCDI
B17 showed a 50% inhibitory concentration (IC50) of under 100 µM.

B18: SEQ ID NO 2839 (peptide)
peptide: TPWYDCYIANVGDLCDFASA
B18 gave an IC50 of under 100 µM.

B19: SEQ ID NO 2851 (peptide)
peptide: SNWHDCLFAQVGELCDLPGS
modifications: disulfide 6-15 (inferred)
For the molecule B19, the concentration for half-maximal inhibition (IC50) is under 100 µM.

B20: SEQ ID NO 2857 (peptide)
peptide: QWFHNCFLARVGDTCDLFLW
B20: the IC50 is under 100 µM.

B21: SEQ ID NO 2847 (peptide)
peptide: WEWYDCLMAQVGELCDFEGN
B21 had a half-maximal inhibitory concentration (IC50) of under 100 µM.

B22: SEQ ID NO 2862 (peptide)
peptide: RYLYDCFLALVGDLCVKFHQ
On to B22, for which the 50% inhibitory concentration (IC50) was under 100 µM.

B23: SEQ ID NO 2833 (peptide)
peptide: RVRRHSWWPCEIAVVGELCDLE
Turning to B23, the 50% inhibitory concentration (IC50) is under 100 µM.

B24: SEQ ID NO 2835 (peptide)
peptide: LPFQDCYIAQVGELCDLPGT
Molecule B24 gave a half-maximal inhibitory concentration (IC50) of under 100 µM.

B25: SEQ ID NO 2823 (peptide)
peptide: WWPCYLAQIGELCDLV
As to B25, the IC50 was under 100 µM.

B26: SEQ ID NO 2869 (peptide)
peptide: QFVKDCFLAQVGDLCELFLW
B26: the IC50 is under 100 µM.

B27: SEQ ID NO 2866 (peptide)
peptide: THVHDCFLAKVGDLCDLFIV
Take B27: the IC50 was under 100 µM.

B28: SEQ ID NO 2824 (peptide)
peptide: WYPCWMAKVGELCDME
Regarding B28, the IC50 is under 100 µM.

B29: SEQ ID NO 2845 (peptide)
peptide: VSRYDCYIAKVGELCDFFEF
Molecule B29 registered an IC50 of under 100 µM.

B30: SEQ ID NO 2849 (peptide)
peptide: SMDQDCYFAQVGELCVLFNQ
With B30, the IC50 is under 100 µM.

B31: SEQ ID NO 2829 (peptide)
peptide: SRVWHPCWLARVGELCDLEVSD
Consider B31, for which the IC50 is under 100 µM.

B32: SEQ ID NO 2855 (peptide)
peptide: RLASDWWDCYIAKVGELCDF
B32 displayed an IC50 of under 100 µM.

B33: SEQ ID NO 2867 (peptide)
peptide: HWVRDCFLAKVGELCDLFLW
In the case of B33, the IC50 was under 100 µM.

B34: SEQ ID NO 2848 (peptide)
peptide: WAFYDCRNAQVGDFCDLWEF
As to B34, the IC50 was under 100 µM.

B35: SEQ ID NO 2831 (peptide)
peptide: HRGWVGWYPCEYALPGQLCDLE
B35 had a half-inhibitory concentration (IC50) of under 100 µM.

B36: SEQ ID NO 2865 (peptide)
peptide: WGKLVRDCFLAKVGDLCDLFLW
Molecule B36 had a concentration for half-maximal inhibition (IC50) of under 100 µM.

B37: SEQ ID NO 2837 (peptide)
peptide: GGYYDCLIAEVGELCDMPGQ
Regarding B37, the IC50 was under 100 µM.

B38: SEQ ID NO 2861 (peptide)
peptide: RSLVDCFLVKVGDLCDFFNW
Consider B38, for which the half-maximal inhibitory concentration (IC50) was under 100 µM.

B39: SEQ ID NO 2850 (peptide)
peptide: GGYYDCLIAEVGELCDIYGR
Regarding B39, the IC50 was under 100 µM.

B40: SEQ ID NO 2844 (peptide)
peptide: LVYYDCYMAQVGELCDLPSL
modifications: disulfide 6-15 (inferred)
For the molecule B40, the IC50 was under 100 µM.

B41: SEQ ID NO 2870 (peptide)
peptide: DWLPDCYFANVGDLCSLFGS
In the case of B41, the half-maximal inhibitory concentration (IC50) is under 100 µM.

B42: SEQ ID NO 2860 (peptide)
peptide: KWVHDCFLAKVGDVCDLFVV
In turn, B42 returned an IC50 of under 100 µM.

B43: SEQ ID NO 2825 (peptide)
peptide: QITDSGWYPCWVAKVGELCDMD
modifications: disulfide 10-19 (inferred)
B43 gave an IC50 of under 100 µM.

B44: SEQ ID NO 2863 (peptide)
peptide: AHFYDCFWAKAGELCDLWPS
modifications: disulfide 6-15 (inferred)
Consider B44, for which the IC50 was under 100 µM.

B45: SEQ ID NO 2871 (peptide)
peptide: HWFLDCFLANVGDLCDFFGN
B45 yielded a 50% inhibitory concentration (IC50) of under 100 µM.

Values taken from patent US20220119492A1 (MEDIKINE, published 2022).
